Test results from PMC8091585.

B1: Ferredoxin isolated from Clostridium pasteurianum (natural protein)
chain: MAYKIADSCVSCGACASECPVNAISQGDSIFVIDADTCIDCGNCANVCPVGAPVQE

Legend:
[1] = target: Pyruvate:ferredoxin oxidoreductase PFOR1 of Thermoanaerobacter kivui (Thermoanaerobacter kivui); assay: SEC; analytical size exclusion chromatography on a calibrated Superdex 200 column, buffer E (50 mM Tris/HCl, 150 mM NaCl, 20 mM MgSO4, 2 mM DTE, 4 µM resazurin, 20% glycerol, pH 7.5), size standards ovalbumin, albumin, catalase, ferritin
[2] = target: Pyruvate:ferredoxin oxidoreductase PFOR1 of Thermoanaerobacter kivui (Thermoanaerobacter kivui)

| Molecule | stoichiometry N [1] | Km for Fd of the pyruvate-dependent Fd reduction by purified PFOR1 (enzyme activity, 66 °C, pH 7.5, Fd 0-50 µM) [2] |
| --- | --- | --- |
| Pyruvate:ferredoxin oxidoreductase PFOR1 of Thermoanaerobacter kivui (enzyme) | 2 | – |
| B1 | – | 19.1 µM |
